Experimental data published in the RNAGym collection of RNA variant scans (doi:10.1073/pnas.2313332121).
Fewer inactive variants are shown than the library holds.

B1: TPR 5TU (parent)
chain: GGAUCUUCUCGAUCUAACAAAAAAGACAAAUCUGCCACAAAGCUUGAGAGCAUCUUCGGAUGCAGAGGCGGCAGCCUUCGGUGGCGCGAUAGCGCCAACGUUCUCAACUAUGACACGCAAAACGCGUGCUCCGUUGAAUGGAGUUUAUCAUG

Variants of: B1
Assay: polymerase ribozyme fitness, log enrichment relative to wild type (log ratio); higher = more active; in vitro selection for triplet polymerase activity
Procedure, shortened: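 Mutant libraries for each subunit of a heterodimeric triplet polymerase ribozyme were made by PCR and then transcribed. Each library underwent one round of in vitro selection in triplicate: annealing with a biotinylated primer, the partner subunit and triplets, frozen incubation at −7 °C, gel excision of extended constructs, streptavidin-bead capture and RT-PCR. Input and output libraries were Illumina-sequenced, and only genotypes with ≥10 input reads and ≥1 read per output were kept. Fitness is the logarithm, base 2, of genotype enrichment over wild-type enrichment, computed from inverse-variance-weighted replicate averages.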

Variant	polymerase ribozyme fitness (log ratio)
A66C A91C	≤ -4.2
A66C A73C	≤ -4.2
C63U U139G	0.261
C63U C96U A150G	-1.22
C63G U78A C79U C85U A98G A106U U134C A142G U146A	≤ -4.2
U61G C76G C123U	≤ -4.2
G62A A98U	-1.42
G62U U102A	-1.64
A66C G84A C87U	≤ -4.2
C63U C75U U82A	0.455
A64G C93G	-4.05
U61C A73U A91U	≤ -4.2
U61A U144C	-2.19
U61C U82C C116U U134C	-2.24
C63A C87U G88A A115U	≤ -4.2
C63U U104G	0.272
G67A A91G U135G C149U	≤ -4.2
G62A G70A G71A G80C C87U C108U	≤ -4.2
A66G A89U C93U C95G	≤ -4.2
C63G A66G G71A G74U U135G G143C	≤ -4.2
U61C C96A A121G	-2.74
C63U C85U C95A	-0.621
U61A G94U A106G	-2.71
G62A C87G U90A C96U C99U U148G	≤ -4.2

Variant	polymerase ribozyme fitness (log ratio)
G65A G67C G92A	≤ -4.2
U61A U101G	-1.11
G62C C93U U135A	-3.41
G65C G88U A106U G140C	≤ -4.2
U61A G67A C76A G81A C85A	≤ -4.2
G67A C114U U134G A150C	≤ -4.2
U61C C96A	-3.31
U61G C75U U144C	-1.52
C63U C85U A113U U146A	-3.03
A66G A73U G81A G92U U111C	≤ -4.2
G62C A120G	-0.94
U61G C75G G88U A89U U101A G140C	≤ -4.2
G65U G71C A73U A122U G126A A137C U146A	≤ -4.2
G67A	-3.22
G67C	-3.97
C63U C85U C87U	-0.425
G62C G94C	-2.03
A66C C76U U82G C85G C125G	≤ -4.2
A66G C93U C108U C132G C149A	≤ -4.2
G62C A115C	-1.06
A64U G92A C95A U101C C105U C123A G124C U145G U148G	≤ -4.2
C63U U102A U104G G124A	-2.05
G62A C69U G92C	-3.74
U61A G68A	≤ -4.2

Variant	polymerase ribozyme fitness (log ratio)
C63A A107C U111C A122G	≤ -4.2
C63G U102G C105U	≤ -4.2
A64G U82G A91U C95U A110U U111G	≤ -4.2
U61G C93G C99G C123G C125G	≤ -4.2
G62C C85A	-3.75
C63G A73G	-0.51
G65A G71U C85A	≤ -4.2
A64U G92A G117C U145A	≤ -4.2
A66C A73G G80C C114A G141A	≤ -4.2
U61C G81C C95G C123U A142G	≤ -4.2
A66G C96A A98G G136U	≤ -4.2
G62A C87U A120G A142C	-3.11
A64U C96U C105G G141A A147G	≤ -4.2
C63G C76U	0.0444
A64U U148G	≤ -4.2
C63U G70A G80C G83C C108G C116U	≤ -4.2
U61G G67U U90A A120G	≤ -4.2
A66C C69U C96U	≤ -4.2
C63G G133U	-4.14
G65C U90C	≤ -4.2
C63A G117U A119C	0.257
A64C C85A C118G A121C	≤ -4.2
U61A U78A C95U C123A U146A	≤ -4.2
G65C A89C G92A U102G C116U A137G	≤ -4.2

Variant	polymerase ribozyme fitness (log ratio)
U61A G92U	-3.41
G62A U82C C95A U101C U148A	≤ -4.2
U61G C85A	-2.29
G67A C72A A142U	≤ -4.2
U61C G80C C85U C99U U146A	≤ -4.2
C63G A64C C72U C95U C105G A120U G141U	≤ -4.2
G62A U130G	-3.67
U61C G94A G141A C149A	≤ -4.2
A66G G81U C87G C99U U104G U134A A142U	≤ -4.2
G62C G68U A89G C108A A113U	≤ -4.2
G62U G86C C95G C132U	≤ -4.2
G67C C93G C118G A150C	≤ -4.2
U61G C95U	-2.07
U61G C95G	-2.32
U61C C76A	-2.59
A66G G92C C95A C103U C108G U151C	≤ -4.2
A64U C69U	≤ -4.2
G67C G80C G92A C103A C118G G133A	≤ -4.2
G65A C93U	-1.96
G67C G83A	≤ -4.2
A66G G133U U145A	≤ -4.2
A64C C85A	≤ -4.2
A66U G88A U145G U148C A150C	≤ -4.2
C63U G141U	1.25

Variant	polymerase ribozyme fitness (log ratio)
U61A C105U	-1.02
G67A U78G G86U C99U G141A	≤ -4.2
U61C C69U G70U G86U A107C	≤ -4.2
A64C G65A G84U C116G U139C	≤ -4.2
A66G C105U	-3.63
A64U C87U G100C U135G A150G	≤ -4.2
C63U C69A C85U A97C C118G G126C	-3.97
G62C A113U G117A A137C	≤ -4.2
U61A G65A G81U C85U U102G	≤ -4.2
A64C G65A A107G G112U G124A G141U U148G	≤ -4.2
U61A C96G U109A	-3.32
A64C A115U A142U G143U	≤ -4.2
C63A C87A A91G	≤ -4.2
G67C A97C C103G C125U C129U A142U G143C A150U	≤ -4.2
G67C A73U A91G G136A A137G	≤ -4.2
A66G G100C A107C C114U A122C G133C	≤ -4.2
C63U A122C	-0.464
A64C A107C C131A	≤ -4.2
G67C C93U A107C C125G	≤ -4.2
U61G G68A U77C C87U C93G C123U G126C U135C	≤ -4.2
U61G G94A A106C C116A G133C U146A	≤ -4.2
C63A C85G C95U C118U	-2.65
C63U C93A C116G A142G	-3.41
C63U C87G	-4.05

Variant	polymerase ribozyme fitness (log ratio)
A64G G67U G84U C103A G112C A115U U146C	≤ -4.2
G62A C85A U151C	≤ -4.2
U61G A64C C75G C93U	≤ -4.2
G67C G68A C85U C99A A115U	≤ -4.2
G62A A73C C75G C87U C103G C132G U145G U146A	≤ -4.2
U61C A64G	≤ -4.2
U61A C149A	≤ -4.2
U61G U77G G92A C96A G143U	≤ -4.2
G67C G71C G86A A107U A121U U144G	≤ -4.2
C63A G92U C116U	-3.98
A66C C85G G141A U146C	≤ -4.2
A64G A150U	-3.42
G67C C87A G100A	≤ -4.2
U61C G92A A120C C123A U144C	≤ -4.2
U61G G74U G83A	≤ -4.2
G65A C105U	-0.804
G65A A97G C99G	-3.75
C63A G92C	-1.03
G62C A106U C125U	-3.86
U61G C96U	-1.29
C63U G86A	-2.99
C63G G92U U102C A120G	-1.8
G65C C132G	≤ -4.2
G62U A115C	-1.97

Variant	polymerase ribozyme fitness (log ratio)
A64C G88U A150C	≤ -4.2
G67C C93G C99G A137U U146A	≤ -4.2
U61A G126C	-0.89
U61G C95U A97G C105A A106U	≤ -4.2
U61G A66C G133C	≤ -4.2
G65U G94A	≤ -4.2
U61A G88U	≤ -4.2
A64G C69G C75A C85A A89U C93A U104G	≤ -4.2
G65C G71U	≤ -4.2
A66C C85G	-4.16
G62A G140A	-3.95
A66C G71C G84U	≤ -4.2
A64G C75G G84U U127A A142U	≤ -4.2
C63A	0.15
C63G	0.136
C63U	-0.0732
C63U G83C U102A A142G A150C	≤ -4.2
C63G G65A G71A C87A C118U U145C	≤ -4.2
G65U A66C U77A A147C	≤ -4.2
U61A C95U	-0.916
C63U U82G G126A G140A	-3.92
C63G A91G	-2.57
G62U A73U	-3.59
